Measured values: patent US20040087767

Biological target: A-183-CS-Z-fusion peptide, P38507

B1: Factor VIIa (protein)
chain: ANAFLEELRPGSLERECKEEQCSFEEAREIFKDAERTKLFWISYSDGDQCASSPCQNGGSCKDQLQSYICFCLPAFEGRNCETHKDDQLICVNENGGCEQYCSDHTGTKRSCRCHEGYSLLADGVSCTPTVEYPCGKIPILEKRNASKPQGRIVGGKVCPKGECPWQVLLLVNGAQLCGGTLINTIWVVSAAHCFDKIKNWRNLIAVLGEHDLSEHDGDEQSRRVAQVIIPSTYVPGTTNHDIALLRLHQPVVLTDHVVPLCLPERTFSERTLAFVRFSLVSGWGQLLDRGATALELMVLNVPRLMTQDCLQQSRKVGDSPNITEYMFCAGYSDGSKDSCKGDSGGPHATHYRGTWYLTGIVSWGQGCATVGHFGVYTRVSQYIEWLQKLMRSEPRPGVLLRAPFP
cleavage of the fusion peptide by FVIIa (HPLC, SDS-PAGE, N-terminal sequencing, mass spectrometry): the fusion peptide was cleaved after the putative P1 arginine only under enzymatically favorable conditions (sTF, pH 8.5); no cleavage was observed at pH 6.0 and the absence of sTF
